Series [1] addresses T1, OcHeR (Ornithinimicrobium cerasi, UniProt A0A285W045).
T1 construct: gene SAMN05421879_12810; purified from E. coli C43(DE3) grown with all-trans-retinal; DDM, Ni-NTA; homodimer
T1 sequence (A0A285W045 1-266): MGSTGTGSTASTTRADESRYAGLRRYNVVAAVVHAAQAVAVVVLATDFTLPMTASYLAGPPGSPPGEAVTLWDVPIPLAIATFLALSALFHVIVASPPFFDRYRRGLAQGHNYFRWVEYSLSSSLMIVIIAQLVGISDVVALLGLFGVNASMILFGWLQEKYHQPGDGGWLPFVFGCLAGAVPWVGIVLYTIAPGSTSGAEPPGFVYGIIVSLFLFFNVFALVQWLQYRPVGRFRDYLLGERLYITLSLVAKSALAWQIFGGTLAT
The series can be described thus: UV-visible absorption spectroscopy of purified pigment. The class given is binding. To be noted: covalent; Schiff base to K252; neutral pH.

Series [2] concerns the target T2, OmrDE (Ornithinimicrobium cerasi, UniProt A0A285VW85+A0A285VWG3).
T2 construct: gene SAMN05421879_12812; co-expressed heterodimer of two half-transporters; codon-optimized, E. coli C43(DE3), DDM-solubilized, Ni-NTA
The series can be described thus: ATP hydrolysis, colorimetric Pi (phosphomolybdate). The series is classed as biochemical. To be noted: read-out: Km (mM, ATP); Mg-ATP (MgSO4:ATP 1.5:1), pH 7.0, 25 °C, 0.02% DDM; no OcHeR. From the text:
ATP hydrolysis, colorimetric Pi (phosphomolybdate) on OmrDE

Series [3] has as its target T3, OmrDE with OcHeR WT (Ornithinimicrobium cerasi, UniProt A0A285VW85+A0A285VWG3).
T3 construct: gene SAMN05421879_12812; E. coli C43(DE3), DDM, Ni-NTA; with Heliorhodopsin
T3 sequence (A0A285VW85 1-577): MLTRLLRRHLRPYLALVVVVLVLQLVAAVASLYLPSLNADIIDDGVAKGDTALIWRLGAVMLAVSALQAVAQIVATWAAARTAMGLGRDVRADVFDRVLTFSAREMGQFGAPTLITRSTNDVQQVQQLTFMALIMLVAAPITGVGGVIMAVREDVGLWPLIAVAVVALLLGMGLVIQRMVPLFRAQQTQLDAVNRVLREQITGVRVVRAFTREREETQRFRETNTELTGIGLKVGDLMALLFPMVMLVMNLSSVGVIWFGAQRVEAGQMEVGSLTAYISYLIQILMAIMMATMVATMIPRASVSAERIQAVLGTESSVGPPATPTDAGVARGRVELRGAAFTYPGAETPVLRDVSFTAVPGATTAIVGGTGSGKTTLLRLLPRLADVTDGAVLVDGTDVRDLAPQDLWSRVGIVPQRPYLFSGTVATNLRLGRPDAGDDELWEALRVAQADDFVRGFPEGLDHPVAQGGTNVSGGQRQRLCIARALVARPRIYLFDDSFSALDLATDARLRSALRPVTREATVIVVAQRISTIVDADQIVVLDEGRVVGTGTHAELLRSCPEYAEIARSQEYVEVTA
T3 sequence (A0A285VWG3 1-661): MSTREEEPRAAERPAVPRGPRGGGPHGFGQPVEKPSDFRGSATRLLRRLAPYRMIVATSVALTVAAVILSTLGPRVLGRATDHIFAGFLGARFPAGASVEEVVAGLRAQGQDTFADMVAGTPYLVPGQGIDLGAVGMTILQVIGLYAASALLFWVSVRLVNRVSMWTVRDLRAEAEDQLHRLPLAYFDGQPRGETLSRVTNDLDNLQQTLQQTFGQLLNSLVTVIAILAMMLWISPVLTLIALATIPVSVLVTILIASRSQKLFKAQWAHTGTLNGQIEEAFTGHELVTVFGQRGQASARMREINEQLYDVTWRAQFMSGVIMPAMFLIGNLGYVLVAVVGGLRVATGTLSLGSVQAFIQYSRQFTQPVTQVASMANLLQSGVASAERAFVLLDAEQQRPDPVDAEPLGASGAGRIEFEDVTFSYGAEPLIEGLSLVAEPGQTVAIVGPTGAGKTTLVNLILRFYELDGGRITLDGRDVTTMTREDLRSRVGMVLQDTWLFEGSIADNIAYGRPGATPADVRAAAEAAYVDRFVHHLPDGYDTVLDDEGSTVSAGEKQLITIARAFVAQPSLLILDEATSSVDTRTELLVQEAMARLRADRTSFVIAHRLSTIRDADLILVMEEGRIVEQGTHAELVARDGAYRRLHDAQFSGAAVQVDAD
T3 sequence (A0A285W045 1-266 partner): T1 sequence (A0A285W045 1-266)
The experiment in a line: ATP hydrolysis, colorimetric Pi (phosphomolybdate). The class given is biochemical. The settings on record: read-out: Km (mM, ATP); Mg-ATP (MgSO4:ATP 1.5:1), pH 7.0, 25 °C, 0.02% DDM; OcHeR WT 1:1, dark. From the text: ATP hydrolysis, colorimetric Pi (phosphomolybdate) on OmrDE with OcHeR WT

Series [4] has as its target heterodimeric multidrug resistance ABC transporter OmrDE (Omithinimicrobium cerasi strain USBA17B2). The experiment in a line: ITC; OcHeR injected into the Omr protein; 25 °C, 500 rpm; buffer SD; MicroCal ITC200; one site binding model (sequential binding site model for R233Q); perfect saturation was not achieved.
Series [5] deals with T2, OmrDE. The experiment in a line: ATP hydrolysis, colorimetric Pi (phosphomolybdate). The class given is biochemical.
The target of series [6] is T4, Omithinimicrobium cerasi strain USBA17B2 heliorhodopsin (OcHeR) WT (Omithinimicrobium cerasi strain USBA17B2, UniProt A0A285W045 1-266, retinal Schiff base linked to K252).
T4 construct: gene codon-optimized for E. coli and chemically synthesized; source: E. coli C43 (DE3), purified (DDM-solubilized membrane fraction, Ni2+-NTA agarose)
T4 sequence (looked up): T1 sequence (A0A285W045 1-266)
The series can be described thus: ITC; OcHeR injected into the Omr protein; 25 °C, 500 rpm; buffer SD; MicroCal ITC200; one site binding model (sequential binding site model for R233Q); perfect saturation was not achieved. To be noted: both partners purified. (In ITC the heat of successive injections is recorded.)

Series [7] has as its target Glu118 (position 118, …). The series can be described thus: UV-vis. The settings on record: not stated for the titration. Purified protein was kept in buffer SD with 150 mM NaCl.; not stated for the titration. Purification buffer SD was 150 mM NaCl, 50 mM Tris-HCl pH 7.0, 0.02% DDM. pH was adjusted by adding HCl and NaOH.; Dark/ground state, retinal-bound, detergent-solubilised, without OmrDE.

Series [8] has as its target T5, heterodimeric multidrug resistance ABC transporter OmrDE (Omithinimicrobium cerasi strain USBA17B2, UniProt A0A285VW85 1-577; A0A285VWG3 1-661).
T5 sequence (looked up) 1: T3 sequence (A0A285VW85 1-577)
T5 sequence (looked up) 2: T3 sequence (A0A285VWG3 1-661)
The experiment in a line: cell-based or functional assay.

Positions count from the first letter of the chain named.

On to `CC1=C(/C=C/C(C)=C/C=C/C(C)=C/C=O)C(C)(C)CCC1` [all-trans-retinal], for which the retinal attachment site result in series [1] is “retinal Schiff base linked to K252 of OcHeR”.

As to `Nc1ncnc2c1ncn2[C@@H]1O[C@H](COP(=O)(O)OP(=O)(O)OP(=O)(O)O)[C@@H](O)[C@H]1O` [ATP], the Michaelis-Menten constant (Km) was determined as 19.2 ± 12.3 mM in series [2] and 10.4 ± 7 mM in series [3].

As for OcHeR R235Q (natural protein), in series [4], the Kd worked out at 26 µM and the dH turned out to be 2.4 kcal/mol.

The molecule `N=C(N)c1ccc(-c2cc3ccc(C(=N)N)cc3[nH]2)cc1` [DAPI] returned an IC50 in series [5] of 47.4 µM.

Regarding OcHeR R229Q (natural protein), in series [4], the Kd was determined as 5.1 µM and the dH was found to be 8.6 kcal/mol.

Take OcHeR R233Q (natural protein): in series [4], the Kd of the first binding (sequential binding site model) worked out at 42.9 µM, the Kd of the second binding (sequential binding site model) is 25.3 µM, the dH of the first binding (sequential binding site model) is 5.9 kcal/mol and the dH of the second binding (sequential binding site model) came to 38.7 kcal/mol.

In series [4], OcHeR W225A (natural protein) came in with a Kd of 16.9 µM and a dH of 11.8 kcal/mol.

B1: NBD-truncated OmrDE (OmrD^tcE^tc) (complex)
chain 1: MLTRLLRRHLRPYLALVVVVLVLQLVAAVASLYLPSLNADIIDDGVAKGDTALIWRLGAVMLAVSALQAVAQIVATWAAARTAMGLGRDVRADVFDRVLTFSAREMGQFGAPTLITRSTNDVQQVQQLTFMALIMLVAAPITGVGGVIMAVREDVGLWPLIAVAVVALLLGMGLVIQRMVPLFRAQQTQLDAVNRVLREQITGVRVVRAFTREREETQRFRETNTELTGIGLKVGDLMALLFPMVMLVMNLSSVGVIWFGAQRVEAGQMEVGSLTAYISYLIQILMAIMMATMVATMIPRASVSAERIQAVLGTESSVGPPATPTDAGVARGR
chain 2: MSTREEEPRAAERPAVPRGPRGGGPHGFGQPVEKPSDFRGSATRLLRRLAPYRMIVATSVALTVAAVILSTLGPRVLGRATDHIFAGFLGARFPAGASVEEVVAGLRAQGQDTFADMVAGTPYLVPGQGIDLGAVGMTILQVIGLYAASALLFWVSVRLVNRVSMWTVRDLRAEAEDQLHRLPLAYFDGQPRGETLSRVTNDLDNLQQTLQQTFGQLLNSLVTVIAILAMMLWISPVLTLIALATIPVSVLVTILIASRSQKLFKAQWAHTGTLNGQIEEAFTGHELVTVFGQRGQASARMREINEQLYDVTWRAQFMSGVIMPAMFLIGNLGYVLVAVVGGLRVATGTLSLGSVQAFIQYSRQFTQPVTQVASMANLLQSGVASAERAFVLLDAEQQRPDPVDAEPLGASGAGR
B1 gave a Kd in series [6] of 38.9 µM.

B2: Heliorhodopsin OcHeR (Ornithinimicrobium cerasi strain USBA17B2 (spelled 'Omithinimicrobium cerasi' in the main text)) (protein)
chain: T1 sequence (A0A285W045 1-266)
In series [7], B2 yielded a pKa of 2.9.

B3: OcHeR R102Q (natural protein)
chain: T1 sequence (A0A285W045 1-266) with R102Q
modifications: retinal Schiff base linked to K252
On to B3, for which, in series [8], the “kcat/Km of ATP hydrolysis of purified OmrDE with OcHeR R102Q (1:1), absence of light” value worked out at 21.4 M^−1 S^−1 and the “kcat/Km of ATP hydrolysis of purified OmrDE with OcHeR R102Q (1:1), presence of light (532 nm)” value amounted to 18.1 M^−1 S^−1.

One may read the Km as the concentration of substrate that gives half-maximal velocity. As usually defined, the Kd is a measure of binding affinity in units of concentration. What is called IC50 is the concentration that inhibits the measured activity by half. The pKa is the pH at which an ionisable group is half protonated. Lower therefore signals a group that gives up its proton readily.
